The target of one experiment is T1, Baboon IL-12 (PBMC sup) (baboon).
T1 chain 1: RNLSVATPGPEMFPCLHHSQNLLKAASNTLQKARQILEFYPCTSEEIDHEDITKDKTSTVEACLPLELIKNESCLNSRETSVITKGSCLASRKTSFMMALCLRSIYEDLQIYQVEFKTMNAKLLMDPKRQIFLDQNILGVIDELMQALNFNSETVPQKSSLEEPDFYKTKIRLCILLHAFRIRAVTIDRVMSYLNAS
T1 chain 2: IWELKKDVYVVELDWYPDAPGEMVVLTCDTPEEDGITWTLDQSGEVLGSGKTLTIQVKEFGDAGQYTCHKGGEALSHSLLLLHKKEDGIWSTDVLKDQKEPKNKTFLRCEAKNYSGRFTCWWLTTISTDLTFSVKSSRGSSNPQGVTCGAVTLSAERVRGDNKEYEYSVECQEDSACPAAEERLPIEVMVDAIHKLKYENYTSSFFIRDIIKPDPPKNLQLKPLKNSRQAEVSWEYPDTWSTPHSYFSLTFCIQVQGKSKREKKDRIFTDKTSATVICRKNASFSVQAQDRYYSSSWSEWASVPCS
The experiment is described as follows: cell-based or functional assay.

A further experiment concerns the target T2, Cyno IL-12 (PBMC sup) (cynomolgus monkey).
T2 chain 1: T1 chain 1 with V82F, K85N, Q110K, I111M, M125R, R172K
T2 chain 2: T1 chain 2 with A230V
In words: cell-based or functional assay.

The target in experiment [1] is recombinant human IL-12 (rhIL-12) (human) (UniProt P29459). The experiment is described as follows: cell-based or functional assay.
Experiment [2] has as its target recombinant rhesus IL-12 (rhesus monkey) (UniProt P48091). In words: cell-based or functional assay.
Experiment [3] addresses recombinant murine IL-12 (mouse) (UniProt P43431). The experiment is described as follows: Receptor Binding Assay: inhibition of 125I-murine IL-12 binding to receptors on 2D6 cells.
For experiment [4] the target is unchanged. In words: cell-based or functional assay.
Experiment [5] has the same target. The experiment is described as follows: Biomolecular Interaction Assay; C17.15 captured on goat anti-rat IgG, soluble recombinant murine IL-12.
Experiment [6] has as its target T3, recombinant human interleukin 12 (p40/p35 heterodimer) (human, UniProt P29460 23-328; P29459 23-219).
T3 chain 1: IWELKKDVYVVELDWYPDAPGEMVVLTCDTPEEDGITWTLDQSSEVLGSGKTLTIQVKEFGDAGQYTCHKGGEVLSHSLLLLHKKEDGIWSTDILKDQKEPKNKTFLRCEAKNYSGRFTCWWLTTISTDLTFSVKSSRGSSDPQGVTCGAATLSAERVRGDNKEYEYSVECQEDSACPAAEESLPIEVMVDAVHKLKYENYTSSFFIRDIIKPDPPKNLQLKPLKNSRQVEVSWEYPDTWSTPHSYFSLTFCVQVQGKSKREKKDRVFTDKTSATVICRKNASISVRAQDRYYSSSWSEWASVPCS
T3 chain 2: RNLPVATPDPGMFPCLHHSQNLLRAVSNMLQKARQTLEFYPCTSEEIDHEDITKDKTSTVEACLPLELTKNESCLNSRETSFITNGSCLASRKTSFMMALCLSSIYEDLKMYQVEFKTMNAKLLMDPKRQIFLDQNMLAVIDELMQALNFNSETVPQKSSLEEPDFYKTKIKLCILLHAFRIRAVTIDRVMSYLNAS
In words: BIAcore; unmutated.

Experiment [7] has as its target T4, recombinant human IL-12 (rhIL-12) (human, UniProt P29459 23-219; P29460 23-328).
T4 sequence (looked up) 1: T3 chain 2
T4 sequence (looked up) 2: T3 chain 1
In words: cell-based or functional assay.

Experiment [8] addresses T4, recombinant human IL-12 (rhIL-12). The experiment is described as follows: BIAcore (SPR) off-rate on IL-12 chip. Background: SPR reads the build-up and loss of mass on a sensor chip optically.
For experiment [9] the target is unchanged. The experiment is described as follows: RB assay: inhibition of 125I-hIL-12 binding to IL-12 receptors on PHA blasts.
For experiment [10] the target is unchanged. The experiment is described as follows: cell-based or functional assay. This is another data set of the same source.
Experiment [11] deals with human IL-12 (recombinant human IL-12, p70 heterodimer of p35 and p40) (human) (UniProt P29459). The experiment is described as follows: cell-based or functional assay.
Experiment [12] shares this target. The experiment is described as follows: RB assay: 125I-hIL-12 binding to PHA blasts.
Experiment [13] shares this target. The experiment is described as follows: BIAcore SPR, IL-12 chip.
Experiment [14] concerns the target T5, recombinant human interleukin 12 (p40/p35 heterodimer) (human, UniProt P29460 23-328; P29459 23-219).
T5 construct: Disulfide-linked heterodimer; also called human IL-12; hIL-12
T5 sequence (looked up) 1: T3 chain 1
T5 sequence (looked up) 2: T3 chain 2
In words: surface plasmon resonance (BIAcore).

Experiment [15] has as its target T3, recombinant human interleukin 12 …. In words: BIAcore; unmutated.
Experiment [16] addresses T6, human IL-12 (recombinant human IL-12, p70 heterodimer of p35 and p40) (human, UniProt P29459 23-219; P29460 23-328).
T6 sequence (looked up) 1: T3 chain 2
T6 sequence (looked up) 2: T3 chain 1
In words: cell-based or functional assay.

The target in experiment [17] is T3, recombinant human interleukin 12 …. In words: BIAcore; unmutated.

Broadly, the IC50 is the concentration at which inhibition is half-maximal. The Kd is the concentration at which binding is half-saturated. As a reminder, the koff is a measure of how fast the partners let go of each other. For orientation: kon means the rate constant with which the complex forms.

Residue numbers refer to the chain shown, from its start. In names and notes the source's numbering stands.

Sequence of recombinant murine IL-12 (mouse) (P43431 23-215, chain 1 of 2): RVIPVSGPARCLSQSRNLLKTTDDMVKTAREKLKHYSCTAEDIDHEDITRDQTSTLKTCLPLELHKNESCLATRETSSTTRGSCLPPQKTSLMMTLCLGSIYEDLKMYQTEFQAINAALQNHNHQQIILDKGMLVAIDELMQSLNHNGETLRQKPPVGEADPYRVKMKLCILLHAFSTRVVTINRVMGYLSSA
Sequence of recombinant murine IL-12 (mouse) (P43432 23-335, chain 2 of 2, further chain): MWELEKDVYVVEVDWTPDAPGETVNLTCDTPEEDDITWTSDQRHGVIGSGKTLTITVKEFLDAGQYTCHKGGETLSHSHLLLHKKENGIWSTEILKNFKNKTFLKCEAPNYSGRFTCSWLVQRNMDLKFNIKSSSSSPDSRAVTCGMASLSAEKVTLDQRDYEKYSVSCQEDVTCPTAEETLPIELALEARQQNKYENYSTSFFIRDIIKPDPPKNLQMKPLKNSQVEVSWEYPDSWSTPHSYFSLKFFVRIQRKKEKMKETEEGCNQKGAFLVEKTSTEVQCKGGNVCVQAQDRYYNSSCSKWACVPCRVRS

Take “C8.6.2, mouse anti-human IL-12 monoclonal antibody”: in the experiment with Baboon IL-12 (PBMC sup), the IC50 (M), Baboon IL-12 PBMC sup turned out to be 2e-10 M. The molecule also yielded an IC50 (M), Cyno IL-12 PBMC sup with Cyno IL-12 (PBMC sup) of 1.2e-10 M. Also, the IC50 (M), Human IL-12 Purified in experiment [1] was 5e-11 M. Also, the IC50 (M), Rhesus IL-12 Purified in experiment [2] was 1e-10 M.

Consider “C17.15, rat anti-murine IL-12 monoclonal antibody”, for which, in [3], the IC50 was determined as 150 pM. In experiment [4], the IC50 (M), Mouse IL-12 Purified is 3e-11 M and the PHA blast Assay IC50 came out at 14 pM. For the same molecule, in experiment [5], the Kd amounted to 480 pM, the koff came out at 0.000184 s⁻¹ and the association rate constant (kon) was 380000 M⁻¹ s⁻¹.

Regarding FIRYDGSNKYYADSVKG [Y61 H52 R], the koff in [6] was found to be 0.000206 s⁻¹.

On to FIRYDGSNKYYADSVKG [Y61 H50 F], for which the koff in experiment [6] stood at 0.000204 s⁻¹.

Turning to FIRYDGSNKYYADSVKG [Y61 H53 D], the koff in experiment [6] is 0.000151 s⁻¹.

B1: Y61 IgG (antibody, V domains shown)
VH: QVQLVQSGGGVVQPGRSLRLSCAASGFTFSSYGMHWVRQAPGKGLEWVAFIRYDGSNKYYADSVKGRFTISRDNSKNTLYLQMKSLRAEDTAVYYCKTHGSHDNWGQGTMVTVSS
VL: SYVLTQPPSVSGTPGQRVTISCSGGRSWIGSNTVKWYQQLPGTAPKLLIYGNDQRPSGVPDRFSGSKSGTSASLAITGVQAEDEADYYCQSYDRGTHPALLFGTGTKVTVLG
For the molecule B1, in the experiment with Cyno IL-12 (PBMC sup), the “IC50 (M), Cyno IL-12 PBMC sup” value worked out at 2.2e-10 M. The IC50 (M), Rhesus IL-12 Purified in [2] is 1e-10 M.

B2: Y19 (scFv, V domains shown)
VH: B1 VH
VL: B1 VL with W28N, T96H, L100M, L101S
In the case of B2, the “PHA assay IC50” value in experiment [7] is > 10000 pM. In addition, the koff in [8] came to 0.000226 s⁻¹. The IC50 in experiment [9] amounted to 30 pM.

B3: 149-7 (scFv, V domains shown)
VH: B1 VH with K97T
VL: SYVLTQPPSVSGTPGQRVTISCSGGRSNIGSNTVKWYQQLPGTAPKLLIYGNDQRPSGVPDRFSGSKSGTSASLAITGVQAEDEADYYCQSYDRDFTGSRVFGTGTKVTVL
As to B3, in [10], the “PHA assay IC50 (M) p70:p40 1:0” value came to 3.5e-09 M, the “PHA assay IC50 (M) p70:p40 1:20” value was 2.5e-09 M and the “PHA assay IC50 (M) p70:p40 1:50” value amounted to 4e-09 M. In [11], the PHA assay IC50 was determined as 3000 pM. Besides, in experiment [12], the IC50 came out at 900 pM. The off-rate (koff) in [13] stood at 0.00113 s⁻¹.

B4: Y61 scFv (scFv, V domains shown)
VH: B1 VH
VL: B1 VL
notes: Single-chain Fv; also called clone Y61
B4: the koff in experiment [14] was ~0.0002 s⁻¹.

B5: D9 (scFv, V domains shown)
VH: B1 VH
VL: B1 VL with W28N, T96R, H97L, L100Q, L101T
Take B5: the koff in experiment [8] turned out to be 0.000821 s⁻¹. For the same molecule, in [9], the IC50 was determined as 3500 pM.

B6: Y61 (scFv, V domains shown)
VH: B1 VH
VL: B1 VL
notes: scFv; also called Y61 scFv
Consider B6, for which the “PHA assay IC50” value in experiment [7] worked out at 140 pM. The off-rate (koff) in [8] was found to be 0.000275 s⁻¹. Besides, the IC50 in [9] is 40 pM.

B7: Y55 (scFv, V domains shown)
VH: B1 VH
VL: B1 VL with W28N, P98F, A99Q, L100M, L101Y
B7: in experiment [7], the “PHA assay IC50” value is > 10000 pM. Also, the koff in [8] came out at 0.00106 s⁻¹. Also, in experiment [9], the IC50 is 140 pM.

B8: J695 (Y61-L94Y-L50Y IgG) (antibody, V domains shown)
VH: B1 VH with Q6E, K84N
VL: B1 VL with S1Q, Y2S, T13A, G25S, W28N, G51Y, V79L, G95Y
Take B8: the “IC50 (M), Baboon IL-12 PBMC sup” value with Baboon IL-12 (PBMC sup) amounted to 1.5e-11 M. In addition, the “IC50 (M), Cyno IL-12 PBMC sup” value with Cyno IL-12 (PBMC sup) is 1e-11 M.

Consider FTFSSYGMH [Y61 H33 G], for which the koff in experiment [15] amounted to 0.000178 s⁻¹.

B9: 70-1 IgG1 (antibody, V domains shown)
VH: HGSHDN
VL: QSYDSSLRGSRV
On to B9, for which the “PHA assay IC50” value in experiment [16] is 200000 pM.

Turning to FTFSSYGMH [Y61 H32 Y], the koff in [15] is 0.000337 s⁻¹.

Take FIRYDGSNKYYADSVKG [Y61 H56 N]: the koff in experiment [17] came to 0.000385 s⁻¹.

On to FTFSSYGMH [Y61 H30 S], for which the koff in experiment [15] turned out to be 0.000168 s⁻¹.

Regarding FIRYDGSNKYYADSVKG [Y61 H58 Y], the koff in [17] was found to be 0.00031 s⁻¹.

On to FTFSSYGMH [Y61 H31 S], for which the koff in experiment [15] worked out at 0.000249 s⁻¹.

With FIRYDGSNKYYADSVKG [Y61 H54 G], in experiment [6], the koff is 0.000178 s⁻¹.

(Values after patent US20110123544A1 (published 2011).)
